One block for each binder: values may come before it.
Columns and labels:
human AXL (full length) [1] = biological target: T1, human AXL (full length) (human, UniProt P30530 26-894); assay: flow cytometry, Gas6 titrated on A431 cells pre-incubated with 10 µg/mL control antibody b12
T1 construct: also called TH1021-AXL; TH1021-hAXL

human AXL (full length) [2] = biological target: T1, human AXL (full length); assay: as above; remark: listed apart in the source
human AXL (full length) [3] = biological target: T1, human AXL (full length); assay: flow cytometry, Gas6 titrated on A431 cells pre-incubated with 10 µg/mL IgG1-AXL-107 (competitor)
human AXL (full length) [4] = biological target: T1, human AXL (full length); assay: flow cytometry, Gas6 titrated on A431 cells pre-incubated with 10 µg/mL IgG1-AXL-148 (competitor)
human AXL (full length) [5] = biological target: T1, human AXL (full length); assay: flow cytometry, Gas6 titrated on A431 cells pre-incubated with 10 µg/mL IgG1-AXL-154 (competitor)
human AXL (full length) [6] = biological target: T1, human AXL (full length); assay: flow cytometry, Gas6 titrated on A431 cells pre-incubated with 10 µg/mL IgG1-AXL-171 (competitor)
human AXL (full length) [7] = biological target: T1, human AXL (full length); assay: flow cytometry, Gas6 titrated on A431 cells pre-incubated with 10 µg/mL IgG1-AXL-183 (competitor)
human AXL (full length) [8] = biological target: T1, human AXL (full length); assay: flow cytometry, Gas6 titrated on A431 cells pre-incubated with 10 µg/mL IgG1-AXL-511 (competitor)
human AXL (full length) [9] = biological target: T1, human AXL (full length); assay: flow cytometry, Gas6 titrated on A431 cells pre-incubated with 10 µg/mL IgG1-AXL-613 (competitor)
human AXL (full length) [10] = biological target: T1, human AXL (full length); assay: flow cytometry, Gas6 titrated on A431 cells pre-incubated with 10 µg/mL IgG1-AXL-726 (competitor)
human AXL (full length) [11] = biological target: T1, human AXL (full length); assay: flow cytometry, Gas6 titrated on A431 cells pre-incubated with 10 µg/mL IgG1-AXL-733 (competitor)
human AXL (full length) [12] = biological target: T1, human AXL (full length); assay: flow cytometry, Gas6 titrated on A431 cells pre-incubated with 10 µg/mL IgG1-AXL-107 (competitor); remark: listed apart in the source
human AXL (full length) [13] = biological target: T1, human AXL (full length); assay: flow cytometry, Gas6 titrated on A431 cells pre-incubated with 10 µg/mL IgG1-AXL-613 (competitor); remark: listed apart in the source
human AXL (full length) [14] = biological target: T1, human AXL (full length); assay: flow cytometry, A431 cells pre-incubated with medium only; Gas6 detected with mouse anti-Gas6 and FITC anti-mouse IgG
human AXL (full length) [15] = biological target: T1, human AXL (full length); assay: flow cytometry, Gas6 titrated on A431 cells pre-incubated with 10 µg/mL YW327.6S2 (competitor); value less accurate due to low binding
human AXL (full length) [16] = biological target: T1, human AXL (full length); assay: as above; remark: listed apart in the source
human AXL (full length) [17] = biological target: T1, human AXL (full length); assay: flow cytometry, A431 cells, no Gas6
[18] = biological target: T2, Homo sapiens AXL-Mus musculus Ig2 domain (p33-AXL-mIg2) (human-mouse chimera, UniProt P30530 26-894); assay: flow cytometry, 1 µg/mL antibody, transfected HEK293F cells
T2 construct: Expressed in HEK293F cells; also called hsAXL-mmIg2; TH1021-mIg2
T2 chain: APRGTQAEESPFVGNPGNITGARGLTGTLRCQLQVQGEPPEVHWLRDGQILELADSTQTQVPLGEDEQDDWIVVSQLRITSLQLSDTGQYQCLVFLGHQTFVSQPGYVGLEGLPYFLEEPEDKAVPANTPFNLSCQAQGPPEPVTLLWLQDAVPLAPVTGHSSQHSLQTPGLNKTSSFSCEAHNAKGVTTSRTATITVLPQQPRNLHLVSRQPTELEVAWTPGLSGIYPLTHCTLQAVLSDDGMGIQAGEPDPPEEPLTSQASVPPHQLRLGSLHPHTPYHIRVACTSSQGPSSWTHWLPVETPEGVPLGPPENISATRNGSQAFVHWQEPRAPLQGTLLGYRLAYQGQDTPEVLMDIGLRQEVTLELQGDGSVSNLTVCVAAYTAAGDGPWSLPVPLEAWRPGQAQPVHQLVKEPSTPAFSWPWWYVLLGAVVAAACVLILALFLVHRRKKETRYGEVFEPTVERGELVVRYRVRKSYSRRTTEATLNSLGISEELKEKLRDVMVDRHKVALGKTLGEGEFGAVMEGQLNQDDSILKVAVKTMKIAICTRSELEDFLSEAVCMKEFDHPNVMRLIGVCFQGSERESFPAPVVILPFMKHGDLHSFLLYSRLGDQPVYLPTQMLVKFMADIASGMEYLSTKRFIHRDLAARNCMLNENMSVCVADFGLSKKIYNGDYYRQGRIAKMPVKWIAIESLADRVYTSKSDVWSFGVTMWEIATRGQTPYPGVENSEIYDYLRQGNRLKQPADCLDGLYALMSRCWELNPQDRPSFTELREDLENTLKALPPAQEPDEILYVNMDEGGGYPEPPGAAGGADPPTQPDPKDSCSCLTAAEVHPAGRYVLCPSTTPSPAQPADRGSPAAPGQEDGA

[19] = biological target: T3, Homo sapiens AXL-Mus musculus FN1 domain (p33-AXL-mFN1) (human-mouse chimera, UniProt P30530 26-894); assay: as above
T3 construct: Expressed in HEK293F cells; also called hsAXL-mmFN1; TH1021-mFN1
T3 chain: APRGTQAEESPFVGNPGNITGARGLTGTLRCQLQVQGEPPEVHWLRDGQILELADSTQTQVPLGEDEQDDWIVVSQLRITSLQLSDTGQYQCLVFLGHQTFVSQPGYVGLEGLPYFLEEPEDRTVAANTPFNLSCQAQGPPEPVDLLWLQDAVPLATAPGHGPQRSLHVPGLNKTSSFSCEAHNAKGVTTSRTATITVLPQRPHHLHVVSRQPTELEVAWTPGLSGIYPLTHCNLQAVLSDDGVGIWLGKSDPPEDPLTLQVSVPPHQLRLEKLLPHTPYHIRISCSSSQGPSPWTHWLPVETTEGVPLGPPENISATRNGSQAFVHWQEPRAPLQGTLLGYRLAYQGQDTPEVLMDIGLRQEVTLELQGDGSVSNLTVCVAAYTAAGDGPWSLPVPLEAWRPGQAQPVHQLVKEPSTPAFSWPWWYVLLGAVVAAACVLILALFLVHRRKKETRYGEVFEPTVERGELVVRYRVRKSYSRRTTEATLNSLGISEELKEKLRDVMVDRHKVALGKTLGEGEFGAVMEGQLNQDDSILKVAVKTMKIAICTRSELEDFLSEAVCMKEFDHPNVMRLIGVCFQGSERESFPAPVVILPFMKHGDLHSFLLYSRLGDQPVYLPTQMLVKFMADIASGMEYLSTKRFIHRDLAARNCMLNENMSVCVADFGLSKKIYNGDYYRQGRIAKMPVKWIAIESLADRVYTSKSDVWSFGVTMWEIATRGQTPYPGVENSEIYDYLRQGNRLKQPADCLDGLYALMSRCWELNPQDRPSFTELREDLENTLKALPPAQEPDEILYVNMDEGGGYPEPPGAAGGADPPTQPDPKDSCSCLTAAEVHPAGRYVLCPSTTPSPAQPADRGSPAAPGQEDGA

[20] = biological target: T4, Homo sapiens AXL-Mus musculus FN2 domain (p33-AXL-mFN2) (human-mouse chimera, UniProt P30530 26-894); assay: as above
T4 construct: Expressed in HEK293F cells; also called hsAXL-mmFN2; TH1021-mFN2
T4 chain: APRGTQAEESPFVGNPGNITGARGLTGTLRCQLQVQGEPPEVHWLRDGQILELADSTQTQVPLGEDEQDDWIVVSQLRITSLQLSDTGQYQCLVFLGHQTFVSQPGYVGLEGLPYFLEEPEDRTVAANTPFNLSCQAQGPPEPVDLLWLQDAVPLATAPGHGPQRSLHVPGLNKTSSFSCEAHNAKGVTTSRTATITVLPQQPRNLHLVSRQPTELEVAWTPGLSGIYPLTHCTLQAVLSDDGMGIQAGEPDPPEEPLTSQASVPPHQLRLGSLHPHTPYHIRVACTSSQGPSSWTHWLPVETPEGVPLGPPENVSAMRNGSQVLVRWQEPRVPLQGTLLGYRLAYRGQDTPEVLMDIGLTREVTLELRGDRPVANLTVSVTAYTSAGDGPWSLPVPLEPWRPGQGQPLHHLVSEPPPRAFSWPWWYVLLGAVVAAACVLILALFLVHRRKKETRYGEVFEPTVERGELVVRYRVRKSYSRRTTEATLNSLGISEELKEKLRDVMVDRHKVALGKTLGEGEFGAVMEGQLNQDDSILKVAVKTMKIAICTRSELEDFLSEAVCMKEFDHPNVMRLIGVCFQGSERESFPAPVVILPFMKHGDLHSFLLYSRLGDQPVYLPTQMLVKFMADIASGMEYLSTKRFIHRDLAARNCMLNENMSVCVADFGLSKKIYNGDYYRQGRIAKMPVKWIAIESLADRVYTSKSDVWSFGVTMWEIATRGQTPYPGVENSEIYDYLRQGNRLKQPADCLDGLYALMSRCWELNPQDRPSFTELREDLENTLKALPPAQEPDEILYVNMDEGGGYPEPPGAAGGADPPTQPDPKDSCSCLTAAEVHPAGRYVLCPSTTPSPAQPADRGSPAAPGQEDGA

human AXL (full length) [21] = biological target: T1, human AXL (full length); assay: flow cytometry, A431 cells pre-incubated with 10 µg/mL Gas6 (competitor)

- EC50 (human AXL (full length) [1]): 0.4 µg/mL
- EC50 (human AXL (full length) [2]): 0.4 µg/mL
- EC50 (human AXL (full length) [3]): 0.78 µg/mL
- EC50 (human AXL (full length) [4]): 0.73 µg/mL
- EC50 (human AXL (full length) [5]): 0.44 µg/mL
- EC50 (human AXL (full length) [6]): 0.69 µg/mL
- EC50 (human AXL (full length) [7]): 0.34 µg/mL
- EC50 (human AXL (full length) [8]): 0.74 µg/mL
- EC50 (human AXL (full length) [9]): 0.57 µg/mL
- EC50 (human AXL (full length) [10]): 0.77 µg/mL
- EC50 (human AXL (full length) [11]): 0.83 µg/mL
- EC50 (human AXL (full length) [12]): 0.78 µg/mL
- EC50 (human AXL (full length) [13]): 0.57 µg/mL
- EC50 (read off the curve) (human AXL (full length) [14]): ~0.1 µg/mL
- EC50 (human AXL (full length) [15]): 5.53 µg/mL
- EC50 (human AXL (full length) [16]): 5.53 µg/mL
B1: recombinant human Gas6 (ligand, UniProt Q14393 49-678, looked up)
chain: AFQVFEEAKQGHLERECVEELCSREEAREVFENDPETDYFYPRYLDCINKYGSPYTKNSGFATCVQNLPDQCTPNPCDRKGTQACQDLMGNFFCLCKAGWGGRLCDKDVNECSQENGGCLQICHNKPGSFHCSCHSGFELSSDGRTCQDIDECADSEACGEARCKNLPGSYSCLCDEGFAYSSQEKACRDVDECLQGRCEQVCVNSPGSYTCHCDGRGGLKLSQDMDTCEDILPCVPFSVAKSVKSLYLGRMFSGTPVIRLRFKRLQPTRLVAEFDFRTFDPEGILLFAGGHQDSTWIVLALRAGRLELQLRYNGVGRVTSSGPVINHGMWQTISVEELARNLVIKVNRDAVMKIAVAGDLFQPERGLYHLNLTVGGIPFHEKDLVQPINPRLDGCMRSWNWLNGEDTTIQETVKVNTRMQCFSVTERGSFYPGSGFAFYSLDYMRTPLDVGTESTWEVEVVAHIRPAADTGVLFALWAPDLRAVPLSVALVDYHSTKKLKKQLVVLAVEHTALALMEIKVCDGQEHVVTVSLRDGEATLEVDGTRGQSEVSAAQLQERLAVLERHLRSPVLTFAGGLPDVPVTSAPVTAFYRGCMTLEVNRRLLDLDEAAYKHSDITAHSCPPVEPAAA
notes: Bought reagent; also called hGas6; Growth Arrest-Specific 6

- EC50 (human AXL (full length) [17]): 0.15 µg/mL
- binding result [18]: binds
- binding result [19]: binds
- binding result [20]: binds
- maximal binding in presence of Gas6 (% of binding in absence of Gas6) (human AXL (full length) [21]): 43%
B2: IgG1-AXL-061 (antibody, V domains shown)
VH: QVQLVQSGAEVKKPGASVKVSCKASGYAFTGYGISWVRQAPGQGLEWIGWISAYNGNTNYVQNLQDRVTMTTDTSTSTAYMELRSLRSDDTAVYYCARDHISMLRGIIIRNYWGQGTLVTVSS
VL: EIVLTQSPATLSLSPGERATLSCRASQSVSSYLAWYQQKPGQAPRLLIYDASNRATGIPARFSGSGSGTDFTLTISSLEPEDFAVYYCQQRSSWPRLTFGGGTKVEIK
